Test: soluble on expression in E. coli; label from the status in PepcDB or PDB records

Row | Sequence | soluble on expression in E. coli
1 | MGSDKIHHHHHHMKYDVAVYIGRFQPFHNGHLSVVQRSLEVAQHLLILTGSHLASPDTRNPWSSEEREEMIRAALPANWQKRVSFIPIRDHLYSDNLWLTEIQQKVLEEAGEEARIVLVGHRKDRSSYYLDLFPQWDFLEVPRLEAVHSTAIRDAYFSGSEESNYAAALPAGVADYLTAYQQTGRYQWLRDEADYIKGYRQAWAVAPYAPTFVTTDAIVIQSGHVLVVRRKARPGKGLIALPGGYIQQDETVLEGMLRELREETGLKVPKPVLQGSIVENRVFDAPQRSQRGRIITHAFCIHLKPGPLPSVRGGDDAEKAWWMSLADLYAHEDQFFEDHFQIIQHFVSRT | not soluble
2 | MGSDKIHHHHHHMKYRRIKGTNDIFGEEIWYWRYVEETFRNVCESAGIEEIRTPIFEQTELFVRSVGEESDIVQKEMYTFQDKAGRSITLRPEGTAPVVRAFLENSLIDRGFQQRYYYIGPMFRYEKPQSGRLRQFHQVGFEIIGPESPKADFEVIMLVDTFLRRLGLTKYKIHLNSIGCPVCRKNYREALKEYYGRILDNLCDDCKRRYETNILRLLDCKVDHEYSLNAPKSVDYLCDSCRAHYKKLKEYLNTFEIEYVEDHTLVRGLDYYTRTVFEVRHEGLGAQSAIAGGGRYDGLFAELGGSSVPALGFAGGIERIILALKAEGIEIPMKNVHLVYIATLGEKAFMDGVRLAGELRKKGLSVDVDIMDRKLSGQLKHASRMGSRYAVIIGDEELEKGIVILRDLETGDQVEIDRDFAADYIAERVSKD | not soluble
3 | MGSDKIHHHHHHMLAIEESQKLTLSNLPSLSLFTGTDQGQFEVMKSQMLKQIGYDSADLNFAYFDMKEVVYKDVELELVSLPFFADEKIVILDYFMDITTAKKRFLTDDELKSFEEYLDNPSPTTKLIIFAEGKLDSKRRLVKLLKRDAKAFDAVEVKEQELRQYFQKWSQKQGLQFTNHSFENLLIKSGFQFSEIQKNLLFLQSYKANSVIEEEDIVNAIPKTLQDNIFDLTQFILTKKMDQARDLVRDLTLQGEDEIKLIAVMLGQFRTFTQVKILAESGQTESQIASSLGSYLGRNPNPYQIKFALRDSRGLSLSFLKQAISYLIETDYQIKTGLYEKGFLFEKALLQIASQVN | not soluble
4 | MGSDKIHHHHHHMLERAVTYKNNGQINIILNGQKQVLTNAEAEAEYQATLQKNEAKHGILKEIEKEMSALVGMEEMKRNIKEIYAWIFVNQKRAEQGLKVGKQALHMMFKGNPGTGKTTVARLIGKLFFEMNVLSKGHLIEAERADLVGEYIGHTAQKTRDLIKKSLGGIWFIDEAYSLARGGEKDFGKEAIDTLVKHMEDKQHEFILILAGYSREMDHFLSLNPGLQSRFPISIDFPDYSVTQLMEIAKRMIDEREYQLSQEAEWKLKDYLMTVKSTTSPIKFSNGRFVRNVIEKSIRAQAMRLLMGDQYLKSDLMTIKSQDLSIKEEASGSA | not soluble
5 | MGSDKIHHHHHHMLESNPPKSLYRETAGGIGDYCALAGAQRARVAIVGGGFTGLSTALHLAEAGDDVAVLEAQQPGWGASGRNGGQVNPGLKYDPDTIEAMFGPELGPRMIDFSYGAPDFTFGLIKRLSIACDARQNGTIRAAIRPKPQAAVRTTAAQCQRRGMPVSMVDAQAMATRTGTGRYIAGMFDARGGDLHPLKYTIGLAAAARNASARIFGGSEVLSLKREAGRWVLKTANGSVSAEKVLVATNGYTGALWPGLEQSLVPVFSAIAATEPLAPAAAAQILPDRPVLYEAGNITVYYRIDAQNRLLMGGRGPMKPIGDASAIRYLTDYALRLWPALAGVRWTHGWNGRVAITKDHLLHIHEPEDGVLICLGYNGRGVAMASAMGAALAQRLQGRETSPFPMPISPLKPIRFHRFWPLGVKAAILSGRLKDRFGL | not soluble
6 | MGSDKIHHHHHHMLHPIILAGGVTQTSEWSTGVCHLALETAPGVPSRFEGVLDAMSGDVFADPVVVTTRDNMSLVERQIAARPAALIVEPETHKPAAALLSAVLSLRHMPGALVVVAPATANLADTRNLDKALCNAIPAAQRGEIVMFGQRTTRAYGGFGIMEVVTQPHENAPVAVSRVLASGRKVTLSHLLHGNHQLWGTGLYLARVDVLLAAFKSHASRLFLPVKNALLRAGTVDRTTLLDRATYRRVKAITFEKAVAEKIENICAIQLDPTWSALEEWDQDAAADSAVAQWDEDLAQERAGVLNARAAAPFPHSADMMAVYASLSKISAEDALSAHATEYDWGRLESLAMGPGFTLQRMSIAPGATLDLNAAPGGAEHWIVAQGSVLITIGDHVRLVWEGHSARIPAGRSRRIENPGSGTLVLVQLQVMPLSATGQPQSAASFSPAGVA | not soluble
7 | MGSDKIHHHHHHMLIKTVLNKFERFKSFIYGDCRLAKVGGSEALVIDIKARRNSKPECPECGKRGKTYDTQPARLFEYVPIWAFKVFFRYAPRRVLCPIHGVKVESLPWGYGKEQMTISYQVYLARWARRLSWKEVAEIFKTSWDSIFRAVQYAVDYGLANRNLDGVTEIGVDEIAVFKGHQYLTMVYQLNAGVRRLLWCGPQRRIRTLLRFFREFGKERSAKLKYVCSDMWAPYLKVIAKRAPNAVNILDRFHIMRKFNEAIDEVRRTEAKEFKAAKQENVLEKGRWLLLKRPENLSEKQTSRLGDLLKLNLSSIKAYLLREDFQQFWDYQRSDFAGKFLDDWVIRTMQTDLEPMKKVARMLRNHKPMILNWFKAKGRLSSGAVEGLNLKAKLTIRKAYGFRTIKCLQVALYHTLGDLPEPLCHHRFC | not soluble
8 | MGSDKIHHHHHHMLIVREFSNRFQQMSGMPINSNETKERLKAAGIDINSKQYRAVMSEMSRDGGGGYTTISAIKKRMSRYDKDGDWINPRTGLAGLLVTDKNCASKNRIVSISESIMDEMFESTKKEFFMENGVHNGDTTNRSEIYQKLYQQTEKNDRLAAGYTLEEYERQYWQAFTDAVKVADPKWEAGKPIMPGVLDRITSKSIDALLVKSGSQLIRKSFERMI | not soluble
9 | MGSDKIHHHHHHMLIYHYTTVDTFLKILDSKAIWASDLSKMNDPQEFTIGIELIKKFYQKKFPDLLHWFENDRFVGLDNEQLLLGCSFSENPDDLSQWRAYGDDGKGVVIGINRRILSASNTLTIPAFYKKDERTASFVHFHKVIYDKQEFENSVKELLDNIGDFINDTVESFKLSIGLSRLACSFKSDFYKTEQEIRAILEHSKRSDIYLDESLKKHKLFDVKFRLSQFGLVPYCKVNLSNADASSIQTVKLGPKCNISKKDLEFMLLATGNKDILVSTSAGQYR | not soluble
10 | MGSDKIHHHHHHMLKIYVVDNGGQWTHREWRVLRELGVDTKIVPNDIDSSELDGLDGLVLSGGAPNIDEELDKLGSVGKYIDDHNYPILGICVGAQFIALHFGASVVKAKHPEFGKTKVSVMHSENIFGGLPSEITVWENHNDEIINLPDDFTLAASSATCQVQGFYHKTRPIYATQFHPEVEHTQYGRDIFRNFIGICASYREIQKENFQH | soluble
11 | MGSDKIHHHHHHMLKQLYLTVLRWRPYKHKKVKIVYIMSFPRNDGHLIEQLEQHYHGMIIVLYTKNCQSYAASLNQKGIKTILFDKKTLLITTAISYLKSAPLIFVDNYFPELAILKKKQVVIQLWHANGALKQFGWGAYHTKHRSSKDQIRFQKVYDKMNYFIVNSLKMEAIFRNNYRLENAQFCHFGSPRLAYLEKLEVGETNQNNKVLYAPTYREGMNEMMLVINQAIKAFSAMPNFHFYMKLHPSIQLDAIELPRNVSIWEKHIFESFSEIGYLITDYSSVVFEYMHVKEQPNILFFCPDLEKYALNPGIEPDFFEYLPGPLVENEKQLIVALSNFSINSYKDNITRINEEWNQYQSKETINKIVELVERILGGFCEK | not soluble
12 | MGSDKIHHHHHHMLKVDPTSPELSILLANPRGFCAGVDRAISIVERALELFEPPIYVRHEVVHNRYVVENLKQRGALFIDELDQVPDNSIVIFSAHGVSQAVRKEAKNRGLKVFDATCPLVTKVHLQVTRASRKGIECILIGHEGHPEVEGTMGQYDNPKGGVYLIESPEDVNNLQVNNPDNLCFVTQTTLSVDDTLDIITALQKRFPSIEGPRKDDICYATQNRQDAVRSMSSEVDLLIVVGSKNSSNSNRLRELAEKTGTQSYLVDTAADVEAMWFDGVKKVAVTAGASAPEVLVQQVVNAIAKLAPSIITEVEGRKEDTVFAVPAELR | not soluble
13 | MGSDKIHHHHHHMLNFTVGPVMSSEEVRAIGAEQVPYFRTTEFSSTMLENEKFMLEYAKAPEGSKAVFMTCSSTGSMEAVVMNCFTKKDKVLVIDGGSFGHRFVQLCEIHEIPYVALKLEHGKKLTKEKLYEYDNQNFTGLLVNVDETSTAVLYDTMMIGEFCKKNNMFFVCDCVSAFLADPFNMNECGADVMITGSQKVLACPPGISVIVLAPRGVERVEKSKVRTMYFDLKDALKNQERGQTPFTPAVGILLQINERLKEIKKHGGADAEVARIASQAADFRAKIKDLPFELVSESPANGVTSVHPTTANAYDIFLKLKDEYGIWICPNGGEMKDTIFRVGHIGALTHEDNTTLVNAFKDLQKRNLL | not soluble
14 | MGSDKIHHHHHHMLNWLRTLLGRVRADPDTIPETLWQHTLAQYPFLAQRAAAEQSQLRTLAGQFLAGKEFSGAQGLVVTDEMAVAIAAQACLPVLHLGLDYYDDFKGIVVHPGAMLARREVMDDSGVVHRYSEVLLGEAMERGPVTLSWQDVAAAGESASQGYNVVVHEFIHKIDMRDGTANGCPPLPSRTAREAWQAVMQPAYDDFREQVAMAERFGGAPPWLDSYAATSPAEFFAVTCEAYFVNRPRFAQDFAALAGLFDEYFRRNRLSTQ | not soluble
15 | MGSDKIHHHHHHMLPQGVKDQKYDQNENIPVSWNCEESDQNHNKQKRNGSPAEGKAQKGGKETQNVLEDVVPEDAEKGKNIDHSTTPMTITLSGTSRVTFSRKYSSSRPATVPMNRYSLKATFHFSLSKYTFQPVTSMSSITESLGTRSPLTTPTTDSRSFSTLTFSTKSSENTLITFEIGPFSTTIPRNLFSSGSRTMAPSSASPRM | not soluble
16 | MGSDKIHHHHHHMLRGGAPAVRMNAMKIISVNVGQPTALQVGQRTAVSGIRKHPVPGRVQVGEKGLEGDHVLNRRYHGGPDQAVYVYTREDYDHWTELLGRALEPGAFGENVLISGAESAEVRVGERFLLGAVEIEVTAPRLPCSTLGARMEDAGFVKRFKAARRPGFYARVLQSGDIGRGDPVTRTPAPDGAPTIGELFDADFAKSHDPAELRAWLTFPLGKRQRKEVEKWLAKAEG | not soluble
17 | MGSDKIHHHHHHMLRSTISLLMNSAAQKTMTNSNFVLNAPKITLTKVEQNICNLLNDYTDLYNQKYHNKPEPLTLRITGGWVRDKLLGQGSHDLDIAINVMSGEQFATGLNEYLQQHYAKYGAKPHNIHKIDKNPEKSKHLETATTKLFGVEVDFVNLRSEKYTELSRIPKVCFGTPEEDALRRDATLNALFYNIHKGEVEDFTKRGLQDLKDGVLRTPLPAKQTFLDDPLRVLRLIRFASRFNFTIDPEVMAEMGDPQINVAFNSKISRERVGVEMEKILVGPTPLLALQLIQRAHLENVIFFWHNDSSVVKFNEENCQDMDKINHVYNDNILNSHLKSFIELYPMFLEKLPILREKIGRSPGFQQNFILSAILSPMANLQIIGNPKKKINNLVSVTESIVKEGLKLSKNDAAVIAKTVDSICSYEEILAKFADRSQLKKSEIGIFLRNFNGEWETAHFASLSDAFLKIPKLETKKIELLFQNYNEFYSYIFDNNLNNCHELKPIVDGKQMAKLLQMKPGPWLGKINNEAIRWQFDNPTGTDQELITHLKAILPKYL | not soluble
18 | MGSDKIHHHHHHMLTKRQLLVLKEIIRLFTESGQPVGSKTLMQELPVHVSSATIRNDMAALEDAGLITKTHSSSGRVPSTQGYRYYLDHLVEPVRVSRHDLATIKQELGQRYSKMDEIVAQSAQILSNLTSYTAISLGPEVNNIKLTGFRLVPLGNHQVMAILVTNNGNVENQVFTVPPSISFDELEKAIRIVNDQLVGLPLVQVAQRLRTDVPSMLMQYLTSPDGFLDIFGNVLKSAASERFYVGGRLNLMDYLGDSDIHELKKIMSLIDADHGDLTELLGGPIRQTPVQVRLGPELKPIDLANLSLITASYDVGGHGTGMIALLGPTQMPYSKMIGLLDVFREELAKRLTDYYANFDQ | not soluble

— the DeepSol protein solubility set
